Article PMC10362042 (Nature Communications, 2023)
Values joined by “and” are separate entries in the source; they are usually repeats but may differ in a detail not shown here. Equal values may be shown once.

Columns and labels:
Experiment in all cases: SPR
Settings in all cases: both partners purified
[1] = molecular target: T1, SARS-CoV-2 Omicron BA.1 RBD (residues 319-541) (SARS-CoV-2, UniProt P0DTC2 319-541)
[2] = molecular target: T2, SARS-CoV-2 Omicron BA.2 RBD (residues 319-541) (SARS-CoV-2, UniProt P0DTC2 319-541)
[3] = molecular target: T3, SARS-CoV-2 Omicron BA.4/5 RBD (residues 319-541) (SARS-CoV-2, UniProt P0DTC2 319-541)
[4] = molecular target: T1, SARS-CoV-2 Omicron BA.1 RBD (residues …); remark: listed apart in the source
[5] = molecular target: T2, SARS-CoV-2 Omicron BA.2 RBD (residues …); remark: listed apart in the source
[6] = molecular target: T3, SARS-CoV-2 Omicron BA.4/5 RBD (residues …); remark: listed apart in the source
[7] = molecular target: SARS-CoV-2 Omicron BA.1 RBD (residues 319-541) (SARS-CoV-2, UniProt P0DTC2 319-541); remark: listed apart in the source
[8] = molecular target: SARS-CoV-2 Omicron BA.2 RBD (residues 319-541) (SARS-CoV-2, UniProt P0DTC2 319-541); remark: listed apart in the source
[9] = molecular target: SARS-CoV-2 Omicron BA.4/5 RBD (residues 319-541) (SARS-CoV-2, UniProt P0DTC2 319-541); remark: listed apart in the source

B1: Golden Hamster ACE2 (residues 1-615) (receptor)
chain: QSIIEEQAKTFLDKFNQEAEDLSYQSALASWNYNTNITEENAQKMNEAAAKWSAFYEEQSKLAKNYSLQEVQNLTIKRQLQALQQSGSSALSADKNKQLNTILNTMSTIYSTGKVCNPKNPQECLLLEPGLDDIMATSTDYNERLWAWEGWRAEVGKQLRPLYEEYVVLKNEMARANNYEDYGDYWRGDYEAEGADGYNYNGNQLIEDVERTFKEIKPLYEQLHAYVRTKLMNTYPSYISPTGCLPAHLLGDMWGRFWTNLYPLTVPFGQKPNIDVTDAMVNQGWNAERIFKEAEKFFVSVGLPYMTQGFWENSMLTDPGDDRKVVCHPTAWDLGKGDFRIKMCTKVTMDNFLTAHHEMGHIQYDMAYATQPFLLRNGANEGFHEAVGEIMSLSAATPEHLKSIGLLPSDFQEDNETEINFLLKQALTIVGTLPFTYMLEKWRWMVFKGDIPKEQWMEKWWEMKREIVGVVEPLPHDETYCDPAALFHVSNDYSFIRYYTRTIYQFQFQEALCQAAKHDGPLHKCDISNSTEAGQKLLNMLRLGKSEPWTLALENVVGARNMDVRPLLNYFEPLSVWLKEQNKNSFVGWNTDWSPYAD
[1]
  Kd: 277 nM and 230 nM and 296 nM and 268 nM
[2]
  Kd: 174 nM and 106 nM and 167 nM and 149 nM
  koff: 0.86 s⁻¹ and 1 s⁻¹ and 0.75 s⁻¹
  kon: 2.5e+06 M⁻¹ s⁻¹ and 3e+06 M⁻¹ s⁻¹ and 2e+06 M⁻¹ s⁻¹
[3]
  Kd: 118 nM and 117 nM and 166 nM and 133 nM
  kon: 26000 M⁻¹ s⁻¹ and 13000 M⁻¹ s⁻¹ and 16000 M⁻¹ s⁻¹

B2: Horse ACE2 (receptor)
chain: QSTTEDLAKTFLEKFNSEAEELSHQSSLASWSYNTNITDENVQKMNEAGARWSAFYEEQCKLAKTYPLEEIQNLTVKRQLQALQQSGSSVLSADKSKRLNEILNTMSTIYSTGKVCNPSNPQECLLLEPGLDAIMENSKDYNQRLWAWEGWRSEVGKQLRPLYEEYVVLKNEMARANNYEDYGDYWRGDYEAEGPSGYDYSRDQLIEDVERTFAEIKPLYEHLHAYVRAKLMDTYPSHINPTGCLPAHLLGDMWGRFWTNLYSLTVPFGQKPNIDVTDAMVDQSWDAKRIFEEAEKFFVSVGLPNMTQGFWENSMLTEPGDGRKVVCHPTAWDLGKGDFRIKMCTKVTMDDFLTAHHEMGHIQYDMAYAVQPYLLRNGANEGFHEAVGEIMSLSAATPNHLKAIGLLPPDFYEDSETEINFLLKQALTIVGTLPFTYMLEKWRWMVFKGEIPKEEWMKKWWEMKREIVGVVEPVPHDETYCDPAALFHVANDYSFIRYYTRTIYQFQFQEALCQTAKHEGPLHKCDISNSTEAGQKLLQMLSLGKSEPWTLALERIVGVKNMDVRPLLNYFEPLFTWLKDQNKNSFVGWSTNWSPYAD
[4]
  Kd: 7440 nM and 7790 nM and 8720 nM and 7980 nM
  koff: 0.23 s⁻¹ and 0.25 s⁻¹ and 0.26 s⁻¹
  kon: 30000 M⁻¹ s⁻¹ and 32000 M⁻¹ s⁻¹
[5]
  Kd: 38200 nM and 38800 nM and 44600 nM and 40500 nM
  koff: 0.38 s⁻¹ and 0.37 s⁻¹
  kon: 9800 M⁻¹ s⁻¹ and 9600 M⁻¹ s⁻¹ and 8400 M⁻¹ s⁻¹
[6]
  Kd: 455 nM and 445 nM and 459 nM and 453 nM
  koff: 0.02 s⁻¹ and 0.021 s⁻¹
  kon: 45000 M⁻¹ s⁻¹ and 46000 M⁻¹ s⁻¹

B3: Cat ACE2 (receptor)
chain: QSTTEELAKTFLEKFNHEAEELSYQSSLASWNYNTNITDENVQKMNEAGAKWSAFYEEQSKLAKTYPLAEIHNTTVKRQLQALQQSGSSVLSADKSQRLNTILNAMSTIYSTGKACNPNNPQECLLLEPGLDDIMENSKDYNERLWAWEGWRAEVGKQLRPLYEEYVALKNEMARANNYEDYGDYWRGDYEEEWTDGYNYSRSQLIKDVEHTFTQIKPLYQHLHAYVRAKLMDTYPSRISPTGCLPAHLLGDMWGRFWTNLYPLTVPFGQKPNIDVTDAMVNQSWDARRIFKEAEKFFVSVGLPNMTQGFWENSMLTEPGDSRKVVCHPTAWDLGKGDFRIKMCTKVTMDDFLTAHHEMGHIQYDMAYAVQPFLLRNGANEGFHEAVGEIMSLSAATPNHLKTIGLLSPGFSEDSETEINFLLKQALTIVGTLPFTYMLEKWRWMVFKGEIPKEQWMQKWWEMKREIVGVVEPVPHDETYCDPASLFHVANDYSFIRYYTRTIYQFQFQEALCRIAKHEGPLHKCDISNSSEAGKKLLQMLTLGKSKPWTLALEHVVGEKKMNVTPLLKYFEPLFTWLKEQNRNSFVGWNTDWRPYADQSIKVRISLKSALGDEAYEWNDNEMYLFRSSVAYAMREYFSKVKNQTIPFVEDNVWVSNLKPRISFNFFVTASKNVSDVIPRSEVEEAIRMSRSRINDAFRLDDNSLEFLGIQPTLSPPYQPPVT
[7]
  Kd: 60.8 nM and 78.5 nM and 65.2 nM and 68.2 nM
  kon: 2.8e+06 M⁻¹ s⁻¹ and 4.2e+06 M⁻¹ s⁻¹ and 2e+06 M⁻¹ s⁻¹
[8]
  Kd: 133 nM and 128 nM and 158 nM and 140 nM
  koff: 0.014 s⁻¹ and 0.036 s⁻¹ and 0.029 s⁻¹
  kon: 180000 M⁻¹ s⁻¹ and 200000 M⁻¹ s⁻¹ and 100000 M⁻¹ s⁻¹
[9]
  Kd: 149 nM (2×) and 166 nM and 155 nM
  koff: 0.069 s⁻¹ and 0.071 s⁻¹ and 0.079 s⁻¹
  kon: 470000 M⁻¹ s⁻¹ and 570000 M⁻¹ s⁻¹ and 380000 M⁻¹ s⁻¹
